Laboratory results as given in paper PMC4351431, “Pharmacokinetics of diluted (U20) insulin aspart compared with standard (U100) in children aged 3–6 years with type 1 diabetes during closed-loop insulin delivery: a randomised clinical trial” (Diabetologia, 2014).
Like-named read-outs stand apart in the source and are kept apart here.

Assays:
[1] = parameters: method as in PMID 23278690; settings: pig, in vivo, sc; cited from earlier work
[2] = Insulin aspart pharmacokinetics during closed-loop insulin delivery, two-compartment modelling of plasma insulin; parameters: species or system human; settings: in vivo
Method: Children were admitted in the afternoon on two study visits, 2–6 weeks apart, at the Wellcome Trust Clinical Research Facility, Addenbrooke’s Hospital, Cambridge, to undergo closed-loop insulin delivery from 17:00 hours until 8:00 hours the following morning. On both occasions, the children consumed identical evening meals at 17:00 hours [44 ± 12 g carbohydrate] and optional bedtime snacks [6 ± 7 g carbohydrate]. Standard pump bolus calculators were used to calculate meal insulin boluses and basal rates on the insulin pump (Animas 2020, Johnson & Johnson, PA, USA) were adjusted every 15 min according to the output of a model predictive control algorithm informed by real-time continuous glucose monitoring values (Dexcom G4, Dexcom, CA, USA). Standard strength (100 U/ml) insulin aspart (Novo Nordisk, Bagsvaerd, Denmark) was infused at one visit and diluted aspart (0.9% saline [154 mmol/l NaCl] at 1:5 ratio, 20 U/ml) was administered at the other; the order of the two interventions was random. […]
Venous blood samples were taken at −30, 0, 30, 60, 90, 120, 180, 240, 300, 360, 420, 480, 540, 600, 660, 720, 780, 840 and 900 min relative to 17:00 hours for measuring the plasma insulin concentration. […] Plasma insulin was measured using an immunochemiluminometric assay (Invitron, Monmouth, UK; intra-assay CV 4.7%, interassay CV 7.2–8.1%; 100% cross reactivity with insulin aspart). Fasting C-peptide levels were measured at plasma glucose values above 6 mmol/l by ELISA (Mercodia, Uppsala, Sweden).
Aspart pharmacokinetics was assessed using a two-compartment model measuring the time-to-peak of plasma insulin concentration (t max), metabolic clearance rate of insulin (MCR I), and background plasma insulin concentration (ins c). […]
Differences between pharmacokinetic parameters were assessed by paired t test (for normally distributed variables) or the Wilcoxon signed-rank test (for non-normally distributed variables). […] The Spearman’s rank correlation evaluated correlations between pharmacokinetic and demographic indices. […]

[3] = cited from earlier work; for MCR I / ins c: published literature, closed-loop insulin delivery
Source text: Similar estimates of MCR I and ins c were also found in the current study and published literature (1.94 vs 1.68 × 10^−2 vs 1.90 × 10^−2 1/kg/min for MCR I, 29 vs 28 vs 61 pmol/l for ins c). In the present study, MCR I values in the two visits were highly correlated (r = 0.918, p < 0.001), as were the ins c values ...

B28Asp human insulin [insulin aspart]
effect of concentration on insulin aspart pharmacokinetics [1]: no significant difference between U200, U100 and U20 | mean value of t max in the present study ([2]; human): 60.4 min | MCR I in the current study [2]: 19.4 mL/min/kg | ins c in the current study [2]: 29 pmol/L | t max ([3]; adults with type 1 diabetes, during closed-loop insulin delivery): 51 min | t max ([3]; older children with type 1 diabetes, during closed-loop insulin delivery): 66 min | MCR I ([3]; ref 7): 0.0168 kg⁻¹ min⁻¹ | ins c ([3]; ref 7): 28 pmol/L | MCR I ([3]; ref 8): 0.019 kg⁻¹ min⁻¹ | ins c ([3]; ref 8): 61 pmol/L | t max ([3]; type 1 diabetes, following insulin bolus injection): 49 min
